Experimental data from patent US20250262210A1 (TRUSTEES OF COLUMBIA UNIVERSITY IN THE CITY OF NEW YORK, published 2025).

How the values were obtained:
EPG5 = EPG5 (human, UniProt Q9HCE0 1-2579, limits assumed); assay: IP/MS, LZTR1 R810W-FLAG, U87
Method in brief: (§1)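 Gel slices were reduced with 5 mM DTT, alkylated with 11 mM IAA and digested overnight at 37° C. with trypsin. Peptides were analysed on an Orbitrap Fusion Tribrid by LC-MS/MS.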

RNF123 = target: T1, RNF123 (human, UniProt Q5XPI4 2-1314, limits assumed); assay: IP/MS, LZTR1 R810W-FLAG, U87
T1 sequence (looked up): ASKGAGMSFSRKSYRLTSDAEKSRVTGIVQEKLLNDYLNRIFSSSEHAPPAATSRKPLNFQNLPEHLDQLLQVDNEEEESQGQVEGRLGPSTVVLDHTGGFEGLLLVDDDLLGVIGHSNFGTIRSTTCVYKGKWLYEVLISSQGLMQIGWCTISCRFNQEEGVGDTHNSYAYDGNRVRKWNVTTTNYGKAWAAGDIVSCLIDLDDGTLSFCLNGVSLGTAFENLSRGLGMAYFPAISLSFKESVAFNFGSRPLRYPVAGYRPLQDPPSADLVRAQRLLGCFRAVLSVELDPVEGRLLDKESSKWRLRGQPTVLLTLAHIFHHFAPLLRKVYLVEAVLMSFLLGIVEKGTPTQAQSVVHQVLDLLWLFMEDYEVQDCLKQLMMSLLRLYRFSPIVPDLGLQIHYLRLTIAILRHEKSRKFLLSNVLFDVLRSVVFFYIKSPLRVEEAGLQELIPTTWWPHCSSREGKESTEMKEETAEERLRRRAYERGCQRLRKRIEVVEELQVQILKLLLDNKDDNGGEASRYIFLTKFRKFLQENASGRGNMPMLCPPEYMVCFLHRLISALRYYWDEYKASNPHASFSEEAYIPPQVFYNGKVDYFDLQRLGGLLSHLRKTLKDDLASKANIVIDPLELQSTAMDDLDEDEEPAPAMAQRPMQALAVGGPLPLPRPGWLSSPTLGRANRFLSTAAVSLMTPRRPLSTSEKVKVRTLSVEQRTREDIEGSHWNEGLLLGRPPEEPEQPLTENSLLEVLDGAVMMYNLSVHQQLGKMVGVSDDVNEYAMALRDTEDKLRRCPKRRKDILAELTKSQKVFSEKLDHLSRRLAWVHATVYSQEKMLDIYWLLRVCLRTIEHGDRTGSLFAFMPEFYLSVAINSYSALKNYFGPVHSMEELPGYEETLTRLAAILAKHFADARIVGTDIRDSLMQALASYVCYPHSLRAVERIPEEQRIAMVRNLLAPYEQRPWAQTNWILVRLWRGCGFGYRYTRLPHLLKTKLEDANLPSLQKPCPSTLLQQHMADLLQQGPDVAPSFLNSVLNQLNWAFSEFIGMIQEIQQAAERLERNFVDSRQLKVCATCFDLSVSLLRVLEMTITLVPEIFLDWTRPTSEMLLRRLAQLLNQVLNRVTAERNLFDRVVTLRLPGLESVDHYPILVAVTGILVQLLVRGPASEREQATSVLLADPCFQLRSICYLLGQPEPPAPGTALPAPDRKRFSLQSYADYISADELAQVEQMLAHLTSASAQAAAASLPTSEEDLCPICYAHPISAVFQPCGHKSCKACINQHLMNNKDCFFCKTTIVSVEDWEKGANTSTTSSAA
Method in brief: as §1

Chain of EPG5 (Q9HCE0 whole entry, the tested form may be a part): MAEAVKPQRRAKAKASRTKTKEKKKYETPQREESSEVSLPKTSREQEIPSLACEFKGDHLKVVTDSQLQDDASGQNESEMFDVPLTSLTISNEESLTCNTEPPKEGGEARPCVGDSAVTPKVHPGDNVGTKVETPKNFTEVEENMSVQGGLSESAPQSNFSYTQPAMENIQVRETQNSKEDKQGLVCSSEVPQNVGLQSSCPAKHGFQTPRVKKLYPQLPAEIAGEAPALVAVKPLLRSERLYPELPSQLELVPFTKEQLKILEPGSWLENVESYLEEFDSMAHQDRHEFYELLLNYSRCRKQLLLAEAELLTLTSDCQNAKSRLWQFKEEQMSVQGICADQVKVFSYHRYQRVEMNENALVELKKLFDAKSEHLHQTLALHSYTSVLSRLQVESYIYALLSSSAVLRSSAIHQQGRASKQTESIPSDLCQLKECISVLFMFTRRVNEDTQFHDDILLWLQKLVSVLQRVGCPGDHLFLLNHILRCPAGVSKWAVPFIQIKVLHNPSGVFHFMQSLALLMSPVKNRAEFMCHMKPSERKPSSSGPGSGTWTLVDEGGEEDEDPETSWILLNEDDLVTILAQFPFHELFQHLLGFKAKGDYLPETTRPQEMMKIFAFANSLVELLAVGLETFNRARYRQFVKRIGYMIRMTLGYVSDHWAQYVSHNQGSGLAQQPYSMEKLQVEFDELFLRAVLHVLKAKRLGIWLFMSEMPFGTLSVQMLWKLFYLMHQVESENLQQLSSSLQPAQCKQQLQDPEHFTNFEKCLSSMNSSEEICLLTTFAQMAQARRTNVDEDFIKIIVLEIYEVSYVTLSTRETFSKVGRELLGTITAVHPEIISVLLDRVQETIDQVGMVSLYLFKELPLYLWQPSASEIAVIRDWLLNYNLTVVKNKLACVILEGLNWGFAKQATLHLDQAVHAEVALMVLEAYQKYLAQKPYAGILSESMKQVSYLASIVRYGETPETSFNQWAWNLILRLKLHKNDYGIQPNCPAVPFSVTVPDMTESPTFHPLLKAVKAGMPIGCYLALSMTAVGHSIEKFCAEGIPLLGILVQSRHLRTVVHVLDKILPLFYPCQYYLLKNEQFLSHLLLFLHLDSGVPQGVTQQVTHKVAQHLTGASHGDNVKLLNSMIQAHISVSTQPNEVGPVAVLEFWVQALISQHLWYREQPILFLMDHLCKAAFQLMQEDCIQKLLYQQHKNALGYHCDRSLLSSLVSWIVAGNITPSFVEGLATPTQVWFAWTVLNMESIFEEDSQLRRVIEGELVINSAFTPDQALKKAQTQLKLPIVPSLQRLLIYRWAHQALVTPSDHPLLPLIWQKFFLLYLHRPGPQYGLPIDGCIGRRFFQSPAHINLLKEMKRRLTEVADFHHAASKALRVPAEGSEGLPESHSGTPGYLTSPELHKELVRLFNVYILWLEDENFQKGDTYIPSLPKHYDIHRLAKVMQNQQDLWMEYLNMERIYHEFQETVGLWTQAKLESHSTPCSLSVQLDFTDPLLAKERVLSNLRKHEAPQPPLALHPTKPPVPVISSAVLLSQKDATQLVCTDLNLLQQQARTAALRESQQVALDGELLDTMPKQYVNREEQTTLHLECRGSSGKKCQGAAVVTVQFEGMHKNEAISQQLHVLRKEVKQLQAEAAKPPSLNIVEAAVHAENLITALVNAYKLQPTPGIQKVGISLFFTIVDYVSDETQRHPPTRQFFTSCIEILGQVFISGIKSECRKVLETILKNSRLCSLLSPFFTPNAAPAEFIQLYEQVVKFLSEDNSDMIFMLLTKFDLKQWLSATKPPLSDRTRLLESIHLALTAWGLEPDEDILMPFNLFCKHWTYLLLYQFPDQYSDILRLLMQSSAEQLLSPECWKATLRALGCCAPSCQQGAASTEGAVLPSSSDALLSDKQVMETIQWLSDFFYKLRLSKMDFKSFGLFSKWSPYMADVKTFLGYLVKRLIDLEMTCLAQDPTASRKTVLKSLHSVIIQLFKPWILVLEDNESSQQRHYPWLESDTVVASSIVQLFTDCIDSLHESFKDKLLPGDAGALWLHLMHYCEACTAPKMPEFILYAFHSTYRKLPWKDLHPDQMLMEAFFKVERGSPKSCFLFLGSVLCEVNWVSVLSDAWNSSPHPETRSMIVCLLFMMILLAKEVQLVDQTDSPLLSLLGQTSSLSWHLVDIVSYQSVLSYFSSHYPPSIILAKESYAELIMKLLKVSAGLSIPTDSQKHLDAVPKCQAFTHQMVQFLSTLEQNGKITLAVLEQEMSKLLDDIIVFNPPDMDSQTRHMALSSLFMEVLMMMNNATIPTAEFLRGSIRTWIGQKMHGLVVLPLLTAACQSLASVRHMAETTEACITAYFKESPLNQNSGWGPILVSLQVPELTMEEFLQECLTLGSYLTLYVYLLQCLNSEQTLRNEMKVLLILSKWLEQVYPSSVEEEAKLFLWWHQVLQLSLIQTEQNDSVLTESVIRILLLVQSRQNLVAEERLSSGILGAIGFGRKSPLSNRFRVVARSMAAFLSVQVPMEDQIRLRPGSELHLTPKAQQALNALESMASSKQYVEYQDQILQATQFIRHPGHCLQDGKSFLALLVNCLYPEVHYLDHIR

B1: LZTR1 R810W-FLAG (other, human, UniProt Q8N653 1-840, looked up)
chain: MAGPGSTGGQIGAAALAGGARSKVAPSVDFDHSCSDSVEYLTLNFGPFETVHRWRRLPPCDEFVGARRSKHTVVAYKDAIYVFGGDNGKTMLNDLLRFDVKDCSWCRAFTTGTPPAPRYHHSAVVYGSSMFVFGGYTGDIYSNSNLKNKNDLFEYKFATGQWTEWKIEGRLPVARSAHGATVYSDKLWIFAGYDGNARLNDMWTIGLQDRELTCWEEVAQSGEIPPSCCNFPVAVCRDKMFVFSGQSGAKITNNLFQFEFKDKTWTRIPTEHLLRGSPPPPQRRYGHTMVAFDRHLYVFGGAADNTLPNELHCYDVDFQTWEVVQPSSDSEVGGAEVPERACASEEVPTLTYEERVGFKKSRDVFGLDFGTTSAKQPTQPASELPSGRLFHAAAVISDAMYIFGGTVDNNIRSGEMYRFQFSCYPKCTLHEDYGRLWESRQFCDVEFVLGEKEECVQGHVAIVTARSRWLRRKITQARERLAQKLEQEAAPVPREAPGVAAGGARPPLLHVAIREAEARPFEVLMQFLYTDKIKYPRKGHVEDVLLIMDVYKLALSFQLCRLEQLCRQYIEASVDLQNVLVVCESAARLQLSQLKEHCLNFVVKESHFNQVIMMKEFERLSSPLIVEIVRRKQQPPPRTPLDQPVDIGTSLIQDMKAYLEGAGAEFCDITLLLDGHPRPAHKAILAARSSYFEAMFRSFMPEDGQVNISIGEMVPSRQAFESMLRYIYYGEVNMPPEDSLYLFAAPYYYGFYNNRLQAYCKQNLEMNVTVQNVLQILEAADKTQALDMKRHCLHIIVHQFTKVSKLPTLWSLSQQLLLDIIDSLASHISDKQCAELGADI
notes: Stably expressed in U87 cells by lentivirus; also called LZTR1-FLAG-R810W; LZTR1 RW; not shown: FLAG tag
EPG5
  binding result: binds
RNF123
  binding result: binds
